T1: full-length mouse Ptc (patched receptor) (mouse, UniProt Q61115 1-1434)
T1 construct: whole, on cells; Predicted mass 159 kDa
T1 sequence (looked up): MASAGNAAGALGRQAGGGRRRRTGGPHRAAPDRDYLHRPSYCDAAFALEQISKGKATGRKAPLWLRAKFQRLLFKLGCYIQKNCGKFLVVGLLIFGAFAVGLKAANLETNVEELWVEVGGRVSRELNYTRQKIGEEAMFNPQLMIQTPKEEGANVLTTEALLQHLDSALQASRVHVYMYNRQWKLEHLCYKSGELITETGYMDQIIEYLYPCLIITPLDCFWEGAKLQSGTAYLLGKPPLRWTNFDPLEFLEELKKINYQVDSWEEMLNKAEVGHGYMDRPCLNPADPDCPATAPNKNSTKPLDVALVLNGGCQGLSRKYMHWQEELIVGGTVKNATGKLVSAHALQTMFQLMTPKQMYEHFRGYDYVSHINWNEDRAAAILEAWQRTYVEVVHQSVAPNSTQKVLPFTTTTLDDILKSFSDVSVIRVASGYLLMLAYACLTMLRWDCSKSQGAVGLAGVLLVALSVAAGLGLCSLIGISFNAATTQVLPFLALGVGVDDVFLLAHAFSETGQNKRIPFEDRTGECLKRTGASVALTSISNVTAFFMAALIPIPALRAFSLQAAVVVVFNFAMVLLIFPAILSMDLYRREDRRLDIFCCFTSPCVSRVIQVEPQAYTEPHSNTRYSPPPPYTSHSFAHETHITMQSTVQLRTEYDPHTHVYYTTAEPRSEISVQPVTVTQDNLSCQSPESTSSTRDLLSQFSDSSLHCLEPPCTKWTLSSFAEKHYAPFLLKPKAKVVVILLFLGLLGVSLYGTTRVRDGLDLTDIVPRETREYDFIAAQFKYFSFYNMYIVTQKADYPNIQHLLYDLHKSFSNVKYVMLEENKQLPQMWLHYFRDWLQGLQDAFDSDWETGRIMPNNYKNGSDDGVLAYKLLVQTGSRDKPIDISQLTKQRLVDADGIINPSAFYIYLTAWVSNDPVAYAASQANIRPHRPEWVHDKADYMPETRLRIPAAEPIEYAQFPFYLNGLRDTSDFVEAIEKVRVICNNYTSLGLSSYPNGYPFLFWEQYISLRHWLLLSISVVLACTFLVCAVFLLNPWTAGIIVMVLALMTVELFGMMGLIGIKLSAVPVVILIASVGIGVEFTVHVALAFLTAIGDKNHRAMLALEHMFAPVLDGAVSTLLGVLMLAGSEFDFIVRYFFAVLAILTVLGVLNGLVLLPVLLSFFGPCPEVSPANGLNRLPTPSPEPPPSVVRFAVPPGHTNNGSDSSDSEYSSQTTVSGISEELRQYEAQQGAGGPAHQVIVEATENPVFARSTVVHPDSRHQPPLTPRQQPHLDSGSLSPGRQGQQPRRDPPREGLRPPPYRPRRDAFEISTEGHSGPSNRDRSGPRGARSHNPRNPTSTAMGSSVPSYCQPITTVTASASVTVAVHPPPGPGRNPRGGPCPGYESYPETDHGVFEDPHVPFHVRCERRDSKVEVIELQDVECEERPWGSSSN


Tests used:
[1] = target: T2, Ptc (patched receptor) of the cells of chicken intermediate neural plate explants; test: cell-based or functional assay
T2 sequence (Q90693 whole entry): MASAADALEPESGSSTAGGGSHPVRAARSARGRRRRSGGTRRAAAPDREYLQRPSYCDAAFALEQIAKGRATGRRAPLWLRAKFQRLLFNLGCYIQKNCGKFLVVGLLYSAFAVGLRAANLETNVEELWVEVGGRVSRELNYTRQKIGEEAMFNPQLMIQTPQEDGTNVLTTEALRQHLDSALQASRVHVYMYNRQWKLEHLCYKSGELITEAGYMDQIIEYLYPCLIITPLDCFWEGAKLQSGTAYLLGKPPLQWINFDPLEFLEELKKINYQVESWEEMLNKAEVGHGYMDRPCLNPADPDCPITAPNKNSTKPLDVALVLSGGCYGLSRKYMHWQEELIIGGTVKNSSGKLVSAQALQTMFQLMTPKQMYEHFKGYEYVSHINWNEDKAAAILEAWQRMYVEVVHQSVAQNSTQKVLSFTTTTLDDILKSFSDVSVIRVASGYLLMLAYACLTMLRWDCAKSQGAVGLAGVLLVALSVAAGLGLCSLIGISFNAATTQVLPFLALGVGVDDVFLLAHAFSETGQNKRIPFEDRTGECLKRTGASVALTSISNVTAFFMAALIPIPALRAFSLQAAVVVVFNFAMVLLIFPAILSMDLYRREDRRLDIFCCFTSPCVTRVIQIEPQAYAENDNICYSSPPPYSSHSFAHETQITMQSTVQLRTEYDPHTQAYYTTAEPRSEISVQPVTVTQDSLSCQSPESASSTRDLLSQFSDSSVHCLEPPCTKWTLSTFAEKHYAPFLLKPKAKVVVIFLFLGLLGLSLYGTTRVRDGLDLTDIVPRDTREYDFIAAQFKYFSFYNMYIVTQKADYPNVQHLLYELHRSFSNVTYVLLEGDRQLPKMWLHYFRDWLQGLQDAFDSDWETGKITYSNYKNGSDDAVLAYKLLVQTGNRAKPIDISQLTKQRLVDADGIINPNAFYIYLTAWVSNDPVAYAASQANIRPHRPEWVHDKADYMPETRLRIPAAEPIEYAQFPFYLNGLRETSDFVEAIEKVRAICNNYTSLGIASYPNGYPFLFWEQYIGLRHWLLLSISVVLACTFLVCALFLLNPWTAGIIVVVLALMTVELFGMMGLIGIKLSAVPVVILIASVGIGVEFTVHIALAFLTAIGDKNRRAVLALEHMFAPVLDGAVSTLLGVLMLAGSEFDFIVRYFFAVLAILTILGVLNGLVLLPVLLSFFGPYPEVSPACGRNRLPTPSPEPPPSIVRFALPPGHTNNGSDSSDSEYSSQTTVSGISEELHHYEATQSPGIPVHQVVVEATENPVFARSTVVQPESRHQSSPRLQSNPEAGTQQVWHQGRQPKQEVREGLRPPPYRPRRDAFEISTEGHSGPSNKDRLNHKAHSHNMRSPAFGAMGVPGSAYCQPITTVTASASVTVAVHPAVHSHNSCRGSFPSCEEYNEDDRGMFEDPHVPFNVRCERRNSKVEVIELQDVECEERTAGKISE

[2] = target: T1, full-length mouse Ptc (patched receptor); test: competition of the disuccinimidyl suberate crosslinking of 32P-Shh-N to Ptc-expressing EcR-293 cells
[3] = target: T2, Ptc (patched receptor) of the cells of …; test: cell-based or functional assay; remark: listed apart in the source

| Binder | HNF-3β induction, nM (minimum concentration for uniform induction, chicken neural plate explants) [1] | Pax-7 repression, nM (minimum concentration for complete repression, chicken neural plate explants) [1] | binding result [2] | reduction in neural plate signaling activity against wild type [3] |
| --- | --- | --- | --- | --- |
| Shh-N SF protein (R154A, S157A) (ligand) not shown | ≥ 100 nM | ~70 nM |  |  |
| Shh-N SG protein (S178A, K179A) (ligand) not shown | ~100 nM | ~30 nM |  |  |
| Shh-N H135A, E177A double mutant (EH) protein (ligand) not shown | ≥ 20 nM | ~10 nM |  |  |
| Shh-N SA altered protein (K75A, E76A, Y81A, D105A, N116A, E189A, K195A) (ligand) not shown | ≤ 20 nM | ~4 nM |  |  |
| Shh-N SB altered protein (N51A, V52A, T56A, E168A) (ligand) not shown | ≥ 20 nM | ~4 nM |  |  |
| Shh-N SC mutant protein (P42A, K46A, R154A, S157A, S178A, K179A) (ligand, Limits of the entry not visible; also called SC altered protein) not shown | > 1000 nM | > 1000 nM | no binding |  |
| Shh-N SD altered protein (E90A, D132A, E138A) (ligand) not shown | ≥ 20 nM | ~10 nM |  | ~2.5 fold |
| Shh-N SE protein (P42A, K46A) (ligand) not shown | ~100 nM | ~20 nM |  |  |

Reference: US6942988 (Johns Hopkins, dated 2005)
